Patent US20260258123A1 (MOMENTA PHARMACEUTICALS, published 2026)

Columns and labels:
[1] = target: T1, endogenous human FcRn in cells (human, UniProt P55899 24-365); experiment: cell-based or functional assay
[2] = target: T2, recombinant human FcRn (rhFcRn) (human, UniProt P55899 24-297; P16213 21-119); experiment: SPR method of Example 2; differs from the 19.4 pM of Table 3
[3] = target: T1, endogenous human FcRn in cells; experiment: flow cytometry on fixed and permeabilised THP-1 cells (endogenous human FcRn), pH 7.4
[4] = target: T2, recombinant human FcRn (rhFcRn); experiment: SPR (ProteOn XPR 36), mAb captured on anti-human Fc, rhFcRn as analyte, pH 7.4, 298K
[5] = target: T1, endogenous human FcRn in cells; experiment: FcRn occupancy in HVTs: unlabeled N027 for 1 hour at 37 C, free FcRn stained with VivoTag645-N027, flow cytometry
[6] = target: T1, endogenous human FcRn in cells; experiment: FcRn occupancy in HAECs: unlabeled N027 for 1 hour at 37 C, free FcRn stained with VivoTag645-N027, flow cytometry
[7] = target: T1, endogenous human FcRn in cells; experiment: FcRn occupancy in HUVECs: unlabeled N027 for 1 hour at 37 C, free FcRn stained with VivoTag645-N027, flow cytometry
[8] = target: T3, cynomolgus monkey FcRn extracellular domain, GPI-linked, on the surface of HEK 293 cells (cynomolgus monkey, UniProt Q8SPV9 24-297; Q8SPW0 21-119, C-terminal engineered GPI linkage); experiment: competition flow cytometry on HEK 293 cells with cell-surface GPI-linked cynomolgus monkey FcRn at pH 6.0; inhibition of the binding of 66 nM fluorescent probe-labeled non-specific IgG; readout cell bound IgG (MFI)
T3 construct: extracellular domain; b2m is not mentioned for these cells

intracellular IgG accumulation (VivoTag645-IgG, flow cytometry), ~IC50, HAECs [1] [µg/mL]	intracellular IgG accumulation (VivoTag645-IgG, flow cytometry), ~IC50, HUVECs [1] [µg/mL]	intracellular IgG accumulation (VivoTag645-IgG, flow cytometry), ~IC50, HVTs [1] [µg/mL]	Kd [2] [nM]	EC50 [3] [nM]	Kd [4] [nM]	koff [4] [s⁻¹]	kon [4] [M⁻¹ s⁻¹]	IC50 [5] [µg/mL]	IC50 [6] [µg/mL]	IC50 [7] [µg/mL]	EC50 [8] [nM]	Binder
~0.12	~0.15	~0.07	0.0193	3	0.0194	2.31e-05	1.19e+06	0.15	0.23	0.15	4.46	N027 (antibody, human IgG1, lambda, N297A, IgG1, lambda light chain; Fluorophore-labelled forms served as detection reagent in the occupancy assays; also called anti-FcRn antibody N027; VivoTag645-labeled N027) heavy: not shown light: QSALTQPASVSGSPGQSITISCTGTGSDVGSYNLVSWYQQHPGKAPKLMIYGDSERPSGVSNRFSGSKSGNTASLTISGLQAEDEADYYCSSYAGSGIYVFGTGTKVTVLGQPKAAPSVTLFPPSSEELQANKATLVCLISDFYPGAVTVAWKADSSPVKAGVETTTPSKQSNNKYAASSYLSLTPEQWKSHKSYSCQVTHEGSTVEKTVAPTECS
–	–	–	–	–	0.0365	4.44e-05	1.22e+06	–	–	–	2.68	N026 (antibody, human IgG1, lambda, N297A, IgG1, lambda light chain; also called anti-FcRn antibody N026) heavy: not shown light: QSALTQPASVSGSPGQSITISCTGTGSDVGSYNLVSWYQQHPGKAPKLMIYGDSERPSGVSNRFSGSKSGNTASLTISGLQAEDEADYYCSSYAGSGIYVFGTGTKVTVLGQPKAAPSVTLFPPSSEELQANKATLVCLISDFYPGAVTVAWKADSSPVKAGVETTTPSKQSNNKYAASSYLSLTPEQWKSHKSYSCQVTHEGSTVEKTVAPTECS
–	–	–	–	–	0.031	4.42e-05	1.42e+06	–	–	–	4.8	N022 (antibody, human IgG1, lambda, N297A, also called anti-FcRn antibody N022) heavy: not shown light: QSALTQPASVSGSPGQSITISCTGTGSDVGSYNLVSWYQQHPGKAPKLMIYGDSERPSGVSNRFSGSKSGNTASLTISGLQAEDEADYYCSSYAGSGIYVFGTGTKVTVLGQPKAAPSVTLFPPSSEELQANKATLVCLISDFYPGAVTVAWKADSSPVKAGVETTTPSKQSNNKYAASSYLSLTPEQWKSHKSYSCQVTHEGSTVEKTVAPTECS
–	–	–	–	–	0.0355	4.03e-05	1.13e+06	–	–	–	3.51	N024 (antibody, human IgG1, lambda, N297A, IgG1, lambda light chain; also called anti-FcRn antibody N024) heavy: not shown light: QSALTQPASVSGSPGQSITISCTGTGSDVGSYNLVSWYQQHPGKAPKLMIYGDSERPSGVSNRFSGSKSGNTASLTISGLQAEDEADYYCSSYAGSGIYVFGTGTKVTVLGQPKAAPSVTLFPPSSEELQANKATLVCLISDFYPGAVTVAWKADSSPVKAGVETTTPSKQSNNKYAASSYLSLTPEQWKSHKSYSCQVTHEGSTVEKTVAPTECS
–	–	–	–	–	0.0314	2.91e-05	927000	–	–	–	5.16	N023 (antibody, human IgG1, lambda, N297A, also called anti-FcRn antibody N023) heavy: not shown light: QSALTQPASVSGSPGQSITISCTGTGSDVGSYNLVSWYQQHPGKAPKLMIYGDSERPSGVSNRFSGSKSGNTASLTISGLQAEDEADYYCSSYAGSGIYVFGTGTKVTVLGQPKAAPSVTLFPPSSEELQANKATLVCLISDFYPGAVTVAWKADSSPVKAGVETTTPSKQSNNKYAASSYLSLTPEQWKSHKSYSCQVTHEGSTVEKTVAPTECS
